# Test system: Bacillus subtilis
# Experiment: cleaved RNA product abundance (RNA/gDNA barcode ratio) relative to median wild-type variant (ratio to wild type); higher = more accumulation of the downstream cleavage product
# Details: experiment (reporter, strain, medium): exp 8a: truncated aprE reporter, strain BJT201 with 2% xylose (RNase J1 expressed); cleavage site: glnRA (positions -5 to +31 mutated)
# Outline: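 In LB at 37°C, B. subtilis cultures went from OD600 0.0003 to 0.3. Their chromosomes held barcoded reporter mRNAs, truncated aprE or tetM, with RNase Y cleavage-site windows mutagenized via oligos at a 9% error rate. Cleaved RNA, chosen by gel, was reverse transcribed and barcode-sequenced alongside genomic DNA barcodes with UMI collapsing, giving a per-construct RNA:gDNA ratio scaled to the median construct with the unmutated site. This scaled ratio is termed cleaved product abundance.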
row,Sequence,cleaved RNA product abundance
1,CGACATGTCCCGCTTCTTTCATTAATCTGTTAGGAACTGTTTTGCTATATACATTTACCTTTTAAGAGGAGGAAT,0.268
2,CGACATGTCCCGCTTCTTTCATTAATCTGTTATCAACTGTTTTGCTATATACATTTACCTTTTAAGAGGAGGAAT,0.403
3,CGACATGTCCCGCTTCTTTCATTAATCTGTTATCAATTGTTTTGCTATATACATTTACCTTTTAAGAGGAGGAAT,0.383
4,CGACATGTCCCGCTTCTTTCATTAATCTTTTAGCAACTGTTTTACTATATACATTTACCTTTTAAGAGGAGGAAT,0.94
5,CGACATGTCCCGCTTCTTTCATTAATCTTTTAGCAACTGTTTTGCTATATACATTTACCTTTTAAGAGGAGGAAT,1.14
6,CGACATGTCCCGCTTCTTTCATTAATGAGTTAGCAACTGTTTTGCTATATACATTTACCTTTTAAGAGGAGGAAT,1.18
7,CGACATGTCCCGCTTCTTTCATTAATGCGATAGCAACTGTTTTGCTATATACATTTACCTTTTAAGAGGAGGAAT,0.395
8,CGACATGTCCCGCTTCTTTCATTAATGCGTTAACAACTGTTTTGCTATATACATTTACCTTTTAAGAGGAGGAAT,0.228
9,CGACATGTCCCGCTTCTTTCATTAATGCGTTAGCAAATGTTTTGCTATATACATTTACCTTTTAAGAGGAGGAAT,0.927
10,CGACATGTCCCGCTTCTTTCATTAATGCGTTAGCAACTATTTTGCTATATACATTTACCTTTTAAGAGGAGGAAT,1.28
11,CGACATGTCCCGCTTCTTTCATTAATGCGTTAGCAACTGTGTTGCTATATACATTTACCTTTTAAGAGGAGGAAT,0.406
12,CGACATGTCCCGCTTCTTTCATTAATGCGTTAGCAACTGTTTTACTATATACATTTACCTTTTAAGAGGAGGAAT,0.324
13,CGACATGTCCCGCTTCTTTCATTAATGCGTTAGCAACTGTTTTGCTATATACATTCACCTTTTAAGAGGAGGAAT,0.329
14,CGACATGTCCCGCTTCTTTCATTAATGCGTTAGCAACTGTTTTGCTATATACATTTACATTTTAAGAGGAGGAAT,0.652
15,CGACATGTCCCGCTTCTTTCATTAATGCGTTAGCAACTGTTTTGCTATATACATTTACCTTTTAAGAGGAGGAAT,0.633
16,CGACATGTCCCGCTTCTTTCATTAATGCGTTAGCAACTGTTTTGCTATATAGATTTACCCTTTAAGAGGAGGAAT,0.761
17,CGACATGTCCCGCTTCTTTCATTAATGCGTTAGCAACTGTTTTGGTATATACATTTACCTTTTAAGAGGAGGAAT,0.244
18,CGACATGTCCCGCTTCTTTCATTAATGCGTTAGCAACTGTTTTTCTATATACATTTACCTTTTAAGAGGAGGAAT,0.479
19,CGACATGTCCCGCTTCTTTCATTAATGCGTTAGCAATTGTTTTGCTATATACATTTACCTTTTAAGAGGAGGAAT,0.995
20,CGACATGTCCCGCTTCTTTCATTAATGCTTTAGCAACTGTTTTGCTATATACATTTACCTTTTAAGAGGAGGAAT,0.618
21,CGACATGTCCCGCTTCTTTCATTAATTCATTAGCAACTGTTTTGCTATATACATTTACCTTTTAAGAGGAGGAAT,0.776
22,CGACATGTCCCGCTTCTTTCATTAATTCGTCAGCAACTGTTTTGCTATATACATTTACCTTTTAAGAGGAGGAAT,0.639

row,Sequence,cleaved RNA product abundance
1,CGACATGTCCCGCTTCTTTCATTAATTCGTTAACAACTGTTTTGCTATATACATTTACCTTTTAAGAGGAGGAAT,0.209
2,CGACATGTCCCGCTTCTTTCATTAATTCGTTACCAACTGTTTTGCTATATACATTTACCTTTTAAGAGGAGGAAT,0.231
3,CGACATGTCCCGCTTCTTTCATTAATTCGTTAGAAACTGTTTTGCTATATACATTTACCTTTTAAGAGGAGGAAT,0.285
4,CGACATGTCCCGCTTCTTTCATTAATTCGTTAGCAAATGTTTTGCAATATACATTTACCTTTTAAGAGGAGGAAT,0.563
5,CGACATGTCCCGCTTCTTTCATTAATTCGTTAGCAAATGTTTTGCTATATACATTTACCTTTTAAGAGGAGGAAT,0.87
6,CGACATGTCCCGCTTCTTTCATTAATTCGTTAGCAACAGTTTTGCTATATACATTTACCTTTTAAGAGGAGGAAT,0.913
7,CGACATGTCCCGCTTCTTTCATTAATTCGTTAGCAACTATTTTGCTATATACATTTACCTTTTAAGAGGAGGAAT,1.64
8,CGACATGTCCCGCTTCTTTCATTAATTCGTTAGCAACTGATTTGCTATATACATTTACCTTTTAAGAGGAGGAAT,0.876
9,CGACATGTCCCGCTTCTTTCATTAATTCGTTAGCAACTGCTTTGCTATATACATTTACCTTTTAAGAGGAGGAAT,0.6
10,CGACATGTCCCGCTTCTTTCATTAATTCGTTAGCAACTGTATTGCAATATACATTTACCTTTTAAGAGGAGGAAT,0.329
11,CGACATGTCCCGCTTCTTTCATTAATTCGTTAGCAACTGTCTTGCTATATACATTTACCTTTTAAGAGGAGGAAT,0.981
12,CGACATGTCCCGCTTCTTTCATTAATTCGTTAGCAACTGTTATGCTATATACATTTACCTTTTAAGAGGAGGAAT,1.05
13,CGACATGTCCCGCTTCTTTCATTAATTCGTTAGCAACTGTTTAGCTATATACATTTACCTTTTAAGAGGAGGAAT,0.488
14,CGACATGTCCCGCTTCTTTCATTAATTCGTTAGCAACTGTTTTACTATATACATTTACCTTTTAAGAGGAGGAAT,0.749
15,CGACATGTCCCGCTTCTTTCATTAATTCGTTAGCAACTGTTTTCCTATATACATTTACCTTTTAAGAGGAGGAAT,0.485
16,CGACATGTCCCGCTTCTTTCATTAATTCGTTAGCAACTGTTTTGATATATACATTTACCTTTTAAGAGGAGGAAT,0.498
17,CGACATGTCCCGCTTCTTTCATTAATTCGTTAGCAACTGTTTTGCCATATACATTTACCTTTTAAGAGGAGGAAT,0.237
18,CGACATGTCCCGCTTCTTTCATTAATTCGTTAGCAACTGTTTTGCTAAATACATTTACCTTTTAAGAGGAGGAAT,0.362
19,CGACATGTCCCGCTTCTTTCATTAATTCGTTAGCAACTGTTTTGCTATACACATTTACCTTTTAAGAGGAGGAAT,0.585
20,CGACATGTCCCGCTTCTTTCATTAATTCGTTAGCAACTGTTTTGCTATATAAATTTACCTTTTAAGAGGAGGAAT,1.12
21,CGACATGTCCCGCTTCTTTCATTAATTCGTTAGCAACTGTTTTGCTATATACAATTACCTTTTAAGAGGAGGAAT,1.18
22,CGACATGTCCCGCTTCTTTCATTAATTCGTTAGCAACTGTTTTGCTATATACACTTACCTTTTAAGAGGAGGAAT,0.629

row,Sequence,cleaved RNA product abundance
1,CGACATGTCCCGCTTCTTTCATTAATTCGTTAGCAACTGTTTTGCTATATACATATACCTTTTAAGAGGAGGAAT,0.859
2,CGACATGTCCCGCTTCTTTCATTAATTCGTTAGCAACTGTTTTGCTATATACATGTACCTTTTAAGAGGAGGAAT,0.933
3,CGACATGTCCCGCTTCTTTCATTAATTCGTTAGCAACTGTTTTGCTATATACATTTAACTTTTAAGAGGAGGAAT,1.68
4,CGACATGTCCCGCTTCTTTCATTAATTCGTTAGCAACTGTTTTGCTATATACATTTACCATTTAAGAGGAGGAAT,1.22
5,CGACATGTCCCGCTTCTTTCATTAATTCGTTAGCAACTGTTTTGCTATATACATTTACCCTTTAAGAGGAGGAAT,0.564
6,CGACATGTCCCGCTTCTTTCATTAATTCGTTAGCAACTGTTTTGCTATATACATTTACCGTTTAAGAGGAGGAAT,0.591
7,CGACATGTCCCGCTTCTTTCATTAATTCGTTAGCAACTGTTTTGCTATATACATTTACCTTTTAAGAGGAGGAAT,1.11
8,CGACATGTCCCGCTTCTTTCATTAATTCGTTAGCAACTGTTTTGCTATATACATTTACGTTTTAAGAGGAGGAAT,0.881
9,CGACATGTCCCGCTTCTTTCATTAATTCGTTAGCAACTGTTTTGCTATATACATTTAGCTTTTAAGAGGAGGAAT,1.88
10,CGACATGTCCCGCTTCTTTCATTAATTCGTTAGCAACTGTTTTGCTATATACATTTATCTTTTAAGAGGAGGAAT,1.4
11,CGACATGTCCCGCTTCTTTCATTAATTCGTTAGCAACTGTTTTGCTATATACATTTGCCTTTTAAGAGGAGGAAT,0.536
12,CGACATGTCCCGCTTCTTTCATTAATTCGTTAGCAACTGTTTTGCTATATATATTTACCTTTTAAGAGGAGGAAT,1.55
13,CGACATGTCCCGCTTCTTTCATTAATTCGTTAGCAACTGTTTTGCTATATTCATTTACCTTTTAAGAGGAGGAAT,0.627
14,CGACATGTCCCGCTTCTTTCATTAATTCGTTAGCAACTGTTTTGCTATCTACATTTACCTTTTAAGAGGAGGAAT,0.0856
15,CGACATGTCCCGCTTCTTTCATTAATTCGTTAGCAACTGTTTTGCTATTTACATTTACCTTTTAAGAGGAGGAAT,0.134
16,CGACATGTCCCGCTTCTTTCATTAATTCGTTAGCAACTGTTTTGTTATATACATTTACCTTTTAAGAGGAGGAAT,0.602
17,CGACATGTCCCGCTTCTTTCATTAATTCGTTAGCAATTGTTTTGCTATATACATTTACCTTTTAAGAGGAGGAAT,1.67
18,CGACATGTCCCGCTTCTTTCATTAATTCGTTAGCACCTGTTTTGCTATATACATTTACCTTTTAAGAGGAGGAAT,0.658
19,CGACATGTCCCGCTTCTTTCATTAATTCGTTAGTAACTGTTTTGCTATATACATTTACCTTTTAAGAGGAGGAAT,0.445
20,CGACATGTCCCGCTTCTTTCATTAATTCGTTATCAACTGTTTTGCTATATACATTTACCTTTTAAGAGGAGGAAT,0.31
21,CGACATGTCCCGCTTCTTTCATTAATTCGTTGGCAACTGTTTTGCTATATACATTTACCTTTTAAGAGGAGGAAT,0.687
22,CGACATGTCCCGCTTCTTTCATTAATTCGTTTGCAACTGTTTTGCTATATACATTTACCTTTTAAGAGGAGGAAT,0.815
